From patent US8580556B2, “Sulfonylurea-responsive repressor proteins” (E. I. du Pont de Nemours and Company, priority 2008, dated 2013)

System: tetA promoter (PtetA)-lacZ reporter in E. coli KM3
Format: cell-based
Details: for 0.2 ppm 48 hr (colony color intensity, induction by chlorsulfuron) / Control 84 hr (colony color intensity, background activity without inducer): M9 assay plates, colony color intensity by ImageJ; for 0.2 ppm 48 hr (colony color intensity, induction by chlorsulfuron): 0.2 ppm chlorsulfuron as inducer, 48 hr at 30° C.; for Control 84 hr (colony color intensity, background activity without inducer) / relative β-galactosidase activity, inducer Blank: no inducer; for Control 84 hr (colony color intensity, background activity without inducer): 84 hr at 30° C.; for relative β-galactosidase activity, inducer atc / relative β-galactosidase activity, inducer Ci / relative β-galactosidase activity, inducer Cs / relative β-galactosidase activity, inducer Es / relative β-galactosidase activity, inducer Ms / relative β-galactosidase activity, inducer Ns / relative β-galactosidase activity, inducer Blank / relative β-galactosidase activity, inducer Rs / relative β-galactosidase activity, inducer Sm / relative β-galactosidase activity, inducer Ts / relative β-galactosidase activity, inducer Tb: Table 6, reverse repressor hits; for relative β-galactosidase activity, inducer atc: anhydrotetracycline; for relative β-galactosidase activity, inducer Ci: chlorimuron; for relative β-galactosidase activity, inducer Ci / relative β-galactosidase activity, inducer Cs / relative β-galactosidase activity, inducer Es / relative β-galactosidase activity, inducer Ms / relative β-galactosidase activity, inducer Ns / relative β-galactosidase activity, inducer Rs / relative β-galactosidase activity, inducer Sm / relative β-galactosidase activity, inducer Ts / relative β-galactosidase activity, inducer Tb: same plate assay format as Table 4; for relative β-galactosidase activity, inducer Cs: chlorsulfuron; for relative β-galactosidase activity, inducer Es: ethametsulfuron; for relative β-galactosidase activity, inducer Ms: metsulfuron; for relative β-galactosidase activity, inducer Ns: nicosulfuron; for relative β-galactosidase activity, inducer Rs: rimsulfuron; for relative β-galactosidase activity, inducer Sm: sulfometuron; for relative β-galactosidase activity, inducer Ts: thifensulfuron; for relative β-galactosidase activity, inducer Tb: tribenuron

Molecule | 0.2 ppm 48 hr/Control 84 hr | 0.2 ppm 48 hr (colony color intensity, induction by chlorsulfuron) | Control 84 hr (colony color intensity, background activity without inducer) | relative β-galactosidase activity, inducer atc | relative β-galactosidase activity, inducer Ci | relative β-galactosidase activity, inducer Cs | relative β-galactosidase activity, inducer Es | relative β-galactosidase activity, inducer Ms | relative β-galactosidase activity, inducer Ns | relative β-galactosidase activity, inducer Blank | relative β-galactosidase activity, inducer Rs | relative β-galactosidase activity, inducer Sm | relative β-galactosidase activity, inducer Ts | relative β-galactosidase activity, inducer Tb
L6-1B03 (protein, Sulfonylurea responsive repressor L6-1B03) MGSRLDKSKVINSALELLNEVGIEGLTTRKLAQKLGVEQPTLYWHVKNKRALLDALAIEMMDRHATHICPLEGESWQDFLRNNAKSMRCALLSHRDGAKVCLGTRWTEQQYEAAENMLAFLCQQGFSLENALYAVSAVRVFTLGCVLFDQESQVAKEERETPTTASMPPLLRQAWELKDHQGAEPAFLFGLELIICGLEKQLKCESGS | 4.6 | 30.0 | 6.6 |  |  |  |  |  |  |  |  |  |  | 
L6-5G06 (protein, Sulfonylurea responsive repressor L6-5G06) MGSRLDKSKVINSALELLNEVGIEGLTTRKLAQKLGVEQPTLYWHVKNKRALLDALAIEMMDRHQTHYCPLEGESWQDFLRNNAKSMRCALLSHRDGAKVCLGTRWTEQQYETAENQLAFLCQQGFSLENALYAVSAVRVFTLGCVLFDQELQVAKEERETPTTASMPPLLRQGWELKDHQGAEPAFLFGLELIICGLEKQLKCESGS | 4.9 |  | 7.0 |  |  |  |  |  |  |  |  |  |  | 
L6-2C09 (protein, Sulfonylurea responsive repressor L6-2C09) MGSRLDKSKVINSALELLNEVGIEGLTTRKLAQKLGVEQPTLYWHVKNKRALLDALAIEMMDRHQTHYCPLEGESWQDFLRNTAKSMRCALLSHRDGAKVCLGTRWTEQLYETAENQLAFLCQQGFSLENALYAMSAVRVFTLGCVLFDQELQVAKEERETPTTASMPPLLRQAWELKDHQGAEPAFLFGLELIICGLEKQLKCESGS | 2.6 |  | 5.2 |  |  |  |  |  |  |  |  |  |  | 
L6-4D10 (protein, Sulfonylurea responsive repressor L6-4D10) MGSRLDKSKVINSALELLNEVGIEGLTTRKLAQKLGVEQPTLYWHVKNKRALLDALAIEMMDRHQTHYCPLEGESWQDFLRNNAKSMRCALLSHRDGAKVCLGTRWTEKQYESAENMLAFLCQQGFSLENALYAVSAVRVFTLGCVLFDQESQVAKEERETPTTASMPPLLRQAWELKDHQGAEPAFLFGLELIICGLEKQLKCESGS | 3.7 |  | 5.0 |  |  |  |  |  |  |  |  |  |  | 
L6-3H02: SuR polypeptide, SEQ ID NO: 94 (protein, Sulfonylurea responsive repressor L6-3H02) MGSRLDKSKVINSALELLNEVGIEGLTTRKLAQKLGVEQPTLYWHVKNKRALLDALAIEMMDRHATHYCPLEGESWQDFLRNTAKSMRCALLSHRDGAKVCLGTRWTEQHYESAENMLAFLCQQGFSLENALYAVSAVRVFTLGCVLFDQESQVAKEERETPTTASMPPLVRQAWELKVHQGAEPAFLFGLELIICGLEKQLKCESGS | 2.8 |  | 5.6 |  |  |  |  |  |  |  |  |  |  | 
L6-2D07 (protein, Sulfonylurea responsive repressor L6-2D07) MGSRLDKSKVINSALELLNEVGIEGLTTRKLAQKLGVEQPTLYWHVKNKRALLDALAIEMMDRHQTHFCPLEGESWQDFLRNTAKSMRCALLSHRDGAKVCLGTRWTEQQYETAENMLAFLCQQGFSLENALYAMSAVRVFTLGCVLFDQESQVAKEERETPTTASMPPLVRQAWELKDHQGAEPAFLFGLELIICGLEKQLKCESGS | 3.4 | 20.0 | 5.8 |  |  |  |  |  |  |  |  |  |  | 
L6-5F05 (protein, Sulfonylurea responsive repressor L6-5F05) MGSRLDKSKVINSALELLNEVGIEGLTTRKLAQKLGVEQPTLYWHVKNKRALLDALAIEMMDRHATHICPLEGESWQDFLRNNAKSMRCALLSHRDGAKVCLGTRWTEQQYEAAENQLAFLCQQGFSLENALYAVSAVRVFTLGCVLFDQELQVAKEERETPTTASMPPLLRQAWELKDHQGAEPAFLFGLELIICGLEKQLKCESGS | 4.1 | 22.0 | 5.4 |  |  |  |  |  |  |  |  |  |  | 
L1-34: library L1 reverse repressor hit (SEQ ID NO: 1206-1213) (protein, rSuR L1-34) MGSRLDKSKVINSALELLNEVGIEGLTTRKLAQKLGVEQPTLYWHVKNKRALLDALAIEMADRHNTHFCPLEGESWQDFLRNAARSMRCALLSHRDGAKVYLGTARTEKQYETTENVLAFLCQQGFSLENALYAVRAVPRFTLGCVLLDQERQVAKEERETPTTDSMPPLLRQARELTDHQGAEPAFLFGLELIICGLEKQLKCESGS |  |  |  | 3.68 | 0.43 | 0.85 | 1.33 | 1.47 | 2.91 | 2.37 | 2.30 | 2.00 | 2.97 | 2.26
L1-33: library L1 reverse repressor hit (SEQ ID NO: 1206-1213) (protein, rSuR L1-33) MGSRLDKSKVINSALELLNEVGIEGLTTRKLAQKLGVEQPTLYWHVKNKRALLDALAIEMLDRHATHFCPLEGESWQDFLRNNAKSMRCALLSHRDGAKVQLGTAATEKQYETLENKLAFLCQQGFSLENALYAHSAVTQFTLGCVLRDQEGQVAKEERETPTTDSMPPLLRQARELRDHQGAEPAFLFGLELIICGLEKQLKCESGS |  |  |  | 8.25 | 0.76 | 3.74 | 2.11 | 4.29 | 5.34 | 7.59 | 10.32 | 5.02 | 5.51 | 4.71
L1-25: library L1 reverse repressor hit (SEQ ID NO: 1206-1213) (protein, rSuR L1-25) MGSRLDKSKVINSALELLNEVGIEGLTTRKLAQKLGVEQPTLYWHVKNKRALLDALAIEMLDRHATHFCPLEGESWQDFLRNTAKSMRCALLSHRDGAKVLLGTATTEKQYETLENLLAFLYQQGFSLENALYAWQAVWRFTLGCVLIDQETQVAKEERETPTTDSMPPLLRQAVELKDHQGAEPAFLFGLELIICGLEKQLKCETGS |  |  |  | 1.22 | 0.11 | 0.28 | 0.13 | 0.32 | 1.21 | 1.17 | 1.08 | 0.63 | 0.64 | 1.72
